In paper PMC8319299 (2020) one finds Kd data, which are given here for one molecule.

The experiment addresses EED (amino acids 40-441) (human, UniProt O75530-1 40-441). In words: FP.

Where no end group is shown, it is not given here. [ ]: non-standard residue; d: D form. Lys(Me3) = C[N+](C)(C)CCCC[C@H](N)C(=O)O

Chain of EED (amino acids 40-441) (O75530 40-441): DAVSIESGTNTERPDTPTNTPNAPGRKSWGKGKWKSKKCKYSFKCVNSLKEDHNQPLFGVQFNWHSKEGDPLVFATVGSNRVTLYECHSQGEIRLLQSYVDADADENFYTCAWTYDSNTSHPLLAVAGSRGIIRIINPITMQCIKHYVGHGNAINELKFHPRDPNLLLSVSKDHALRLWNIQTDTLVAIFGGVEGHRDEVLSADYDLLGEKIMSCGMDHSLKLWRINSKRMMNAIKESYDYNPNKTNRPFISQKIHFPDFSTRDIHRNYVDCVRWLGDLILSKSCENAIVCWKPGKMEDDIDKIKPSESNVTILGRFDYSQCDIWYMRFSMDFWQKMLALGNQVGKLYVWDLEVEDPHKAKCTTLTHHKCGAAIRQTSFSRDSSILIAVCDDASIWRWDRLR

In general, Kd refers to the constant that tells how readily two partners part at equilibrium. A low value points to tighter binding. Turning to LK[Lys(Me3)]APG [PALI1-K1241me3 peptide with the F1242A mutation], the Kd came to 223 µM.
